Here are results for four molecules from article PMC10657434, “Architecture of the baculovirus nucleocapsid revealed by cryo-EM” (Nature Communications, 2023).

Sequences and labels used below:
B3: AC104 (VP80) (natural protein)
chain: MNDSNSLLITRLAAQILSRNMQTVDVIVDDKTLSLEEKIDTLTSMVLAVNSPPQSPPRVTSSDLAASIIKNNSKMVGNDFEMRYNVLRMAVVFVKHYPKYYNETTAGLVAEIESNLLQYQNYVNQGNYQNIEGYDSLLNKAEECYVKIDRLFKESIKKIMDDTEAFEREQEAERLRAEQTAANALLERRAQTSADDVVNRADANIPTAFSDPLPGPSAPRYMYESSESDTYMETARRTAEHYTDQDKDYNAAYTADEYNSLVKTVLLRLIEKALATLKNRLHITTIDQLKKFRDYLNSDADAGEFQIFLNQEDCVILKNLSNLASKFFNVRCVADTLEVMLEALRNNIELVQPESDAVRRIVIKMTQEIKDSSTPLYNIAMYKSDYDAIKNKNIKTLFDLYNDRLPINFLDTSATSPVRKTSGKRSAEDDLLPTRSSKRANRPEINVISSEDEQEDDDVEDVDYEKESKRRKLEDEDFLKLKALEFSKDIVNEKLQKIIVVTDGMKRLYEYCNCKNSLETLPSAANYGSLLKRLNLYNLDHIEMNVNFYELLFPLTLYNDNDNSDKTLSHQLVNYIFLASNYFQNCAKNFNYMRETFNVFGPFKQIDFMVMFVIKFNFLCDMRNFAKLIDELVPNKQPNMRIHSVLVMRDKIVKLAFSNLQFQTFSKKDKSRNTKHLQRLIMLMNANYNVI
notes: AC104 (VP80) of AcMNPV, as present in the native nucleocapsid; only Ile490-Thr664 and Asn673-Asn685 (AC104-1, AC104-2) and Asp463-Ile691 (AC104-3) are resolved and modelled; also called AC104-1; AC104-2; source: AcMNPV ODV nucleocapsids from occlusion bodies of infected Spodoptera exigua larvae; alkaline lysis, centrifugation

Series [1] concerns the molecule itself. In words: cryo-EM structure; head and base of native AcMNPV ODV nucleocapsids; local refinement 4.3 Å (elements common to both ends), 4.8 Å (base with AC98), 4.9 Å (plug); AlphaFold2 models docked into density and refined; partners co-purified as the native nucleocapsid.
The series “AC104 (VP80)” has as its target B3. Described as above. To be noted: both partners purified.
Series [2] concerns the molecule itself. Put plainly: cryo-EM structure; helical cylinder of native AcMNPV ODV nucleocapsids; helical reconstruction 3.9 Å, local refinement 3.2 Å; VP39 model built de novo; partners co-purified as the native nucleocapsid.
Series [3] deals with the molecule itself. Put plainly: cross-linking; purified AcMNPV nucleocapsid, 2 mM BS3 on ice 2 h, stopped with 50 mM Tris-HCl pH 7.5; mass spectrometry, pLink2.

B1: AC101 (BV/ODV-C42) (natural protein)
chain: MSAIALYLEINKLRLKIDEPMQLAIWPQLFPLLCDEHQSVQLNTDVLINFMMHVARKSQNTILNNNAAIASQYAAGNADVVAAPASAQPTPRPVINLFARANAAAPAQPSEELINMRRYRNAARKLIHHYSLNSTSSTEYKISDVVMTMIFLLRSEKYHSLFKLLETTFDDYTCRPQMTQVQTDTLLDAVRSLLEMPSTTIDLTTVDIMRSSFARCFNSPIMRYAKIVLLQNVALQRDKRTTLEELLIERGEKIQMLQPQQYINSGTEIPFCDDAEFLNRLLKHIDPYPLSRMYYNAANTMFYTTMENYAVSNCKFNIEDYNNIFKVMENIRKHSNKNSNDQDELNIYLGVQSSNAKRKKY
notes: AC101 (BV/ODV-C42) of AcMNPV, as present in the native nucleocapsid; ~110 N-terminal and ~30 C-terminal residues are not resolved; modelled parts include Glu112-Asn218, Ser219-Thr241 and Leu243-His334; also called BV/ODV-42; AC101-1; source: AcMNPV ODV nucleocapsids from occlusion bodies of infected Spodoptera exigua larvae; alkaline lysis, centrifugation
Consider B1, for which the binding result in series [1] is reported as “binds”.

B2: major capsid protein VP39 (natural protein)
chain: MALVPVGMAPRQMRVNRCIFASIVSFDACITYKSPCSPDAYHDDGWFICNNHLIKRFKMSKMVLPIFDEDDNQFKMTIARHLVGNKERGIKRILIPSATNYQDVFNLNSMMQAEQLIFHLIYNNENAVNTICDNLKYTEGFTSNTQRVIHSVYATTKSILDTTNPNTFCSRVSRDELRFFDVTNARALRGGAGDQLFNNYSGFLQNLIRRAVAPEYLQIDTEELRFRNCATCIIDETGLVASVPDGPELYNPIRSSDIMRSQPNRLQIRNVLKFEGDTRELDRTLSGYEEYPTYVPLFLGYQIINSENNFLRNDFIPRANPNATLGGGAVAGPAPGVAGEAGGGIAV
notes: major capsid protein VP39 of Autographa californica multiple nucleopolyhedrovirus (AcMNPV), as present in the native nucleocapsid; regions described in the model run from Arg14 to Asn320; Native virion protein; forms disulfide-linked dimers arranged as a 14-start helical cylinder; also called VP39A; VP39B; source: AcMNPV ODV nucleocapsids from occlusion bodies of infected Spodoptera exigua …
As for B2, the binding result (in the series with AC104 (VP80); in series [2]) was “binds” throughout. As to B3, the binding result in series [1] is listed as “binds”.

B4: polyhedrin (natural protein)
chain: MPDYSYRPTIGRTYVYDNKYYKNLGAVIKNAKRKKHFAEHEIEEATLDPLDNYLVAEDPFLGPGKNQKLTLFKEIRNVKPDTMKLVVGWKGKEFYRETWTRFMEDSFPIVNDQEVMDVFLVVNMRPTRPNRCYKFLAQHALRCDPDYVPHDVIRIVEPSWVGSNNEYRISLAKKGGGCPIMNLHSEYTNSFEQFIDRVIWENFYKPIVYIGTDSAEEEEILLEVSLVFKVKEFAPDAPLFTGPAY
notes: polyhedrin of AcMNPV, left in the nucleocapsid sample after alkaline lysis of occlusion bodies; also called polyhedrins; source: present in the buffer of the AcMNPV nucleocapsid preparation (nucleocapsids not isolated by gradient centrifugation)
For B4, the binding result in series [3] is given as “binds”.
